Assays:
Format in all cases: in vivo
db/db mice [1] = test: Dose response of NT-4/5 on serum biomarkers of db/db mice (Example 2)
Procedure: Db/db mice maintained as described in Example 1 were divided into five groups (groups 1-5). Group 1 (7 mice) were administered with vehicle (PBS). Group 2 (7 mice), group 3 (8 mice), group 4 (8 mice), group 5 (8 mice) were each administered with NT-4/5 at the doses of 2 mg/kg, 5 mg/kg, 10 mg/kg, and 20 mg/kg, respectively. Both the vehicle and NT-4/5 were administered to each group of the mice subcutaneously once daily for five days. One day before beginning the treatment (T0), blood samples were collected from the mice as described previously for the determination of baseline levels of serum biomarkers (glucose, triglyceride, and cholesterol). Similarly, at day 6 (T6), blood samples were collected for the determination of serum biomarker levels. The blood samples were treated in the same manner as described in Example 1.
Blood glucose, triglyceride, and cholesterol levels were determined as described in Example 1.

DIO mice [2] = test: Body weight and food intake in high fat diet-induced obese (DIO) mice (Example 5); conditions: 2 and 10 mg/kg s.c.; P<0.001; dose dependent
Procedure: (§1) Test animals: Mice with diet induced obesity (DIO) from Jackson Laboratory were used in this study. El-Haschimi, J. Clin. Invest. 105:1827-1832 (2000); Steppan, Nature 409:307-312 (2001). 23 male C57BL/6J mice were weaned at 4 weeks of age. Immediately after weaning they were put on about 58% high fat diet ([…], Research Diet) through out the study. The DIO mice at 13 weeks of age weighing in the range of 28-40 g were used in this study. Older mice at 22-24 weeks of age were also used.
Administration of NT-4/5: NT-4/5 used in this study was obtained from Genentech. The mice were divided into 3 groups of equivalent body weight and baseline blood glucose distribution (7-8 mice per group). Each group received from day 1 to day 5, from day 8 to day 12, from day 15 to 16 a daily subcutaneous dose of either vehicle, 2 mg/kg or 10 mg/kg of NT-4/5, respectively. Five days prior to the treatment started (day −5), a baseline blood samples were collected for measuring glucose and triglyceride. Subsequent to the treatment started (day 1), blood glucose and triglyceride were measured once a week. Body weight, food intake were monitored 5 days per week through out the entire study. […] They were fasted overnight (for 16 hours) before fasting glucose levels were measured and the oral glucose tolerance test was conducted with a load of 2 grams of glucose/kg of body weight.

DIO mice [3] = test: Glucose, triglyceride and oral glucose tolerance in DIO mice (Example 5); conditions: 2 and 10 mg/kg
Procedure: as §1
Administration of NT-4/5: NT-4/5 used in this study was obtained from Genentech. The mice were divided into 3 groups of equivalent body weight and baseline blood glucose distribution (7-8 mice per group). Each group received from day 1 to day 5, from day 8 to day 12, from day 15 to 16 a daily subcutaneous dose of either vehicle, 2 mg/kg or 10 mg/kg of NT-4/5, respectively. Five days prior to the treatment started (day −5), a baseline blood samples were collected for measuring glucose and triglyceride. Subsequent to the treatment started (day 1), blood glucose and triglyceride were measured once a week. Body weight, food intake were monitored 5 days per week through out the entire study. From days 57-59, the DIO mice received a daily injection of NT-4/5 at 2 or 10 mg/kg respectively. They were fasted overnight (for 16 hours) before fasting glucose levels were measured and the oral glucose tolerance test was conducted with a load of 2 grams of glucose/kg of body weight.

[4] = Serum half life after single subcutaneous dose in db/db mice (Example 7); conditions: single subcutaneous dose of 4 mg/kg in db/db mice; estimated
Text: In addition, pegylated NT-4/5 has extended half life in vivo.

DIO mice [5] = test: NT-4/5 versus BDNF on body weight and food intake of DIO mice (Example 10)
Text: Test animals: Mice with diet induced obesity (DIO) were used in this study. 22 male C57BL/6J mice were weaned at 4 weeks of age. Immediately after weaning they were put on 58% high fat diet (D12331i, Research Diet) through out the study. The DIO mice at 13 weeks of age weighing in the range of 28-40 g were used in this study.
Administration of NT-4/5 and BDNF: NT-4/5 was produced was produced as described in U.S. Pat. No. 6,184,360. The recombinant human BDNF was obtained from PeproTech Inc. (Rocky Hill, N.J.).
The mice were divided into 3 groups of equivalent body weight distribution (7-8 mice per group). Each group received 2 weekly intravenous doses of either vehicle, 2 mg/kg of NT-4/5 or 2 mg/kg of BDNF, respectively. Body weight and food intake were taken the day before treatment started (day 0) and followed subsequently on a daily basis.

db/db mice [6] = test: Co-administration of Mab 1241 with NT4/5 in db/db mice (Example 15); conditions: NT4/5 2 mg/kg s.c. daily day 1-5; Mab 1241 5 mg/kg i.p. single on day 1
Text: Test animals: 32 Leptin receptor mutant db/db mice (BSK.Cg-m+/+Leprdb) obtained from Jackson Laboratory were used for the study. The mice were divided into four groups of 8 animals each (groups 1-4), with homogeneous initial body weight and glycemia values based on a randomization table. The mice were housed one per cage.
Anti-NT4/5 and NT4/5: Both anti-NT4/5 monoclonal antibody Mab 1241 and human NT4/5 were obtained from Genentech. […] (data not shown).
Administration of Mab 1241 and NT4/5: On day one, mice in groups 1-4 were treated with vehicle (PBS) subcutanouesly (s.c.), 5 mg/kg Mab 1241 intraperitioneally (i.p.), 5 mg/kg Mab 1241 intraperitioneally (i.p.) plus 2 mg/kg NT4/5 subcutanouesly (s.c.), and 2 mg/kg NT4/5 subcutanouesly (s.c.), respectively. On day 2 through day 5, group 1 was treated with a daily dose of vehicle (PBS) subcutanouesly (s.c.). Groups 3 and 4 were treated with a daily dose of 2 mg/kg NT4/5 subcutanouesly (s.c.).
Baseline non-fasted blood glucose level was measured by One-Touch Ultra glucose meter from the tail bleed.

[7] = Day 0 (Baseline), 2 mg/kg group
[8] = Day 0 (Baseline), 5 mg/kg group
[9] = Day 0 (Baseline), 10 mg/kg group
[10] = Day 0 (Baseline), 20 mg/kg group
[11] = DIO mice 12-16 weeks of age, not diabetic
[12] = DIO mice 22-24 weeks of age, overt diabetes
[13] = weekly intravenous injection, 2 mg/kg

B1: NT-4/5: mature human neurotrophin-4/5 (SEQ ID NO:1), obtained from Genentech or produced in E. coli (protein, listed as Homo sapiens)
chain: GVSETAPASRRGELAVCDAVSGWVTDRRTAVDLRGREVEVLGEVPAAGGSPLRQYFFETRCKADNAEEGGPGAGGGGCRGVDRRHWVSECKAKQSYVRALTADAQGRVGWRWIRIDTACVCTLLSRTGRA
Cholesterol (db/db mice [1]; [7]): 86.25 mg/dL | Glucose (db/db mice [1]; [7]): 544.50 mg/dL | Triglyceride (db/db mice [1]; [7]): 206.13 mg/dL | Cholesterol (db/db mice [1]; [8]): 95.88 mg/dL | Glucose (db/db mice [1]; [8]): 563.00 mg/dL | Triglyceride (db/db mice [1]; [8]): 217.13 mg/dL | Cholesterol (db/db mice [1]; [9]): 90.00 mg/dL | Glucose (db/db mice [1]; [9]): 538.00 mg/dL | Triglyceride (db/db mice [1]; [9]): 197.50 mg/dL | Cholesterol (db/db mice [1]; [10]): 98.38 mg/dL | Glucose (db/db mice [1]; [10]): 544.88 mg/dL | Triglyceride (db/db mice [1]; [10]): 253.50 mg/dL | Cholesterol (db/db mice [1]; Day 6, 2 mg/kg s.c. once daily for five days): 111.43 mg/dL | Cholesterol (db/db mice [1]; Day 6, 5 mg/kg s.c. once daily for five days): 113.25 mg/dL | Cholesterol (db/db mice [1]; Day 6, 10 mg/kg s.c. once daily for five days): 108.75 mg/dL | Cholesterol (db/db mice [1]; Day 6, 20 mg/kg s.c. once daily for five days): 112.88 mg/dL | blood cholesterol levels (db/db mice [1]; day 6, 2-20 mg/kg): remained at the baseline level | body weight (DIO mice [2]): significantly reduced | food intake (DIO mice [2]): significantly reduced | non-fasting glucose levels (DIO mice [3]; [11]): did not affect | non-fasting triglyceride levels (DIO mice [3]; [11]): did not affect | fasting glucose level (DIO mice [3]; [12]): significantly reduced fasting glucose level | glucose tolerance (DIO mice [3]; [12]): improved glucose tolerance | serum half life [4]: 41 to 52 min | body weight on day 2 (DIO mice [5]; 2 mg/kg i.v.): reduced body weight significantly | food intake on day 2 (DIO mice [5]; 2 mg/kg i.v.): reduced food intake significantly | body weight (DIO mice [5]; [13]): reduced the body weight more effectively than that of BDNF | food intake (DIO mice [5]; [13]): reduced the food intake more effectively than that of BDNF | body weight (db/db mice [6]): small, but statistically insignificant reduction in body weight | food intake (db/db mice [6]): significantly reduced food intake on day 8 and day 10 | non-fasted glucose level (db/db mice [6]): reduced non-fasted glucose level only on day 9, but not on day 4

From patent publication US20090203610A1, “METHODS OF TREATING OBESITY OR DIABETES USING NT-4/5” (RINAT NEUROSCIENCE CORPORATION, priority 2004, published 2009)
